Series [1] concerns the target T1, α1I binding to type III collagen (Homo sapiens, UniProt P56199).
T1 construct: recombinant I domains from integrins α1 and α2 (α1I and α2I); made in house
The series can be described thus: Competition ELISA, inhibition of I domain binding to type III collagen. To be noted: 100 μM peptide, 0.5 μM α1I, type III procollagen-coated wells. (In general: In an ELISA, binding on a coated surface is turned into a signal by an enzyme label.)

The test system of another series is MRC-5 cells. The series can be described thus: Cell attachment assay on coated substrates. Format: cell-based, human. The conditions noted are these: increasing coating concentrations, 1.5×10^4 cells per well, 45 min, room temperature. The method, then:
Reagents and Cell Culture. The human recombinant mature type III collagen used for cell attachment assays was purchased from FibroGen. All cell culture media components were purchased from Invitrogen. The human lung fibroblast cell line MRC-5 was purchased from American Type Culture Collection (ATCC) (Manassas, Va.). The cells were cultured and passaged in Dulbecco's modified Eagle's medium (DMEM) supplemented with 10% fetal bovine serum, 100 unit/ml penicillin and 100 μg/ml streptomycin. The cells were grown to subconfluence and passaged every 2-3 days.
Cell attachment assay. MRC-5 cells were starved overnight in serum deficient DMEM containing penicillin and streptomycin, then detached using 1 mM EDTA and 0.025% trypsin at 37° C. for 2 minutes. The cells were washed with PBS and resuspended in DMEM containing 0.2% BSA supplemented with 2 mM MgCl2. 100 μl of the cell suspension (˜1.5×10^5 cells/ml) were added to the microtiter wells coated with different concentrations of collagen or collagen peptides and blocked with PBS containing 0.5% (w/v) BSA. After incubation at room temperature for 45 min, the wells were washed with PBS. Attached cells were fixed with 3% p-formaldehyde for 10 min at room temperature. Following washing with cold Tris-buffered saline (TBS), pH 7.4, cells were fixed again in 20% methanol for 10 min and stained with 0.5% crystal violet for 5 min. The wells were thoroughly washed with distilled water and air-dried. Sodium citrate (0.1 M) was then added to the wells to dissolve the dye and the absorbance at 590 nm was measured. The maximum cell attachment on type III collagen was set to 100% and, residual attachment on BSA was set to 0%.
Adhesion of MRC-5 cells to peptide#1 (SEQ ID NO: 15) substrates. […] Wells in 96-well plates were coated with increasing concentrations of type III collagen, peptide #1 (SEQ ID NO: 15) or #2 (SEQ ID NO: 16) and 1.5×10^4 MRC-5 cells were added to each well. The plate was incubated for 45 min at room temperature and adhering cells were quantified as described herein.

Series [2] concerns the target T2, α2I binding to type III collagen (Homo sapiens, UniProt P17301).
T2 construct: recombinant I domains from integrins α1 and α2 (α1I and α2I); made in house
The series can be described thus: Competition ELISA, inhibition of I domain binding to type III collagen. To be noted: 100 μM peptide, 5 μM α2I, type III procollagen-coated wells.

Series [3] concerns the target T3, α2I (recombinant I domain of integrin α2) (Homo sapiens, UniProt P17301).
T3 construct: recombinant I domains from integrins α1 and α2 (α1I and α2I); made in house
The series can be described thus: SPR (BIAcore 3000), I domain binding to immobilized fibrillar collagens. To be noted: equilibrium analysis, 1 mM MgCl2. The procedure: Surface Plasmon Resonance (SPR) measurements. For the analyses of interactions between recombinant I domains and fibrillar collagens, SPR measurements were carried out at ambient temperature using the BIAcore 3000 system (BIAcore, Uppsala, Sweden) as described previously (21) with following modifications. First, purified recombinant human procollagens I and III (described above), or bovine mature type II collagen (Sigma) were immobilized on the flow cells of a CM5 chip resulting in 200-700 response units of immobilized protein.
SPR sensorgrams from different injections were overlaid using the BIAevaluation software (BIAcore AB). Data from the steady state portion of the sensorgrams were used to determine the binding affinities. Based on the correlation between the SPR response and change in protein mass on the surfaces of flow cells, values for the binding ratio, νbound, and the concentration of free protein, [P]free, were calculated using the equations described previously (21). Scatchard analysis was performed by plotting νbound/[P]free against νbound in which the negative reciprocal of the slope is the dissociation constant, KD. Nonlinear regression was also performed by plotting νbound against [P]free and fitted with the one-binding class or the two-binding class models using the GraphPad Prism™ software (GraphPad Software Inc., San Diego, Calif.). Results from the two models were compared with respect to the value of R^2 and the degree of freedom of the curve fit. The model that gave KD values outside the experimental data range was excluded. Experimental results were reproducible with at least three independent protein preparations.
The interactions between the two I domains and fibrillar collagens (types I, II and III) were examined by SPR. Solutions of 1 μM α1I or α2I were passed over chips containing immobilized collagen I, II, or III in the presence of 1 mM MgCl2.
The BIAcore 3000 system used in the present invention had higher sensitivity of detection which enabled examination of the interactions between α2I and collagens at a sub-micromolar concentration range. […] The binding affinities of α2I to the three types of collagen appeared to be slightly more variable.
(In general: Surface plasmon resonance follows binding to a sensor surface in real time, without labels.)

Series [4] in a line: CD temperature-dependent denaturation of triple helix. Format: physicochemical. The conditions noted are these: CD ellipticity at 225 nm, 20° C./hr, Boltzmann sigmoidal fit. The procedure:
Circular Dichroism (CD) Spectroscopy. Synthetic collagen peptides were analyzed by CD spectroscopy, as described previously (18) with the following modifications. Briefly, peptides were dissolved in HBS to a concentration of 50 μM. CD spectra were collected on a Jasco J720 spectropolarimeter (Tokyo, Japan) from 190 to 240 nm, with bandwidth of 1 nm and integrated for 1 s at 0.2 nm intervals. Samples were measured at room temperature using cuvettes with 0.02 cm path length. For temperature-dependent denaturation analysis, […] of peptides were added to a thermostatically controlled cuvette with a 0.5 cm path length. Thermal transition profiles were recorded at 225 nm as described above with a temperature slope of 20° C./hr. To calculate the temperature melting points, the thermal transition profiles were fitted with Boltzmann sigmoidal model using the GraphPad Prism™ software (GraphPad Software Inc., San Diego, Calif.).

The mark [5] stands for this setting: first line per collagen in Table 2 (unit from b77), read-out: KD, high affinity binding class.
The mark [6] stands for this setting: second line per collagen in Table 2 (unit from b77), read-out: KD, low affinity binding class.

Like-named read-outs stand apart in the source and are kept apart here. Non-standard residues stand in square brackets, D forms with d. Residues, ends and D or L forms follow the SMILES beside them. No end group written: not given here. Hyp = O=C(O)[C@@H]1C[C@@H](O)CN1

T3 sequence (P17301 188-365 limits assumed): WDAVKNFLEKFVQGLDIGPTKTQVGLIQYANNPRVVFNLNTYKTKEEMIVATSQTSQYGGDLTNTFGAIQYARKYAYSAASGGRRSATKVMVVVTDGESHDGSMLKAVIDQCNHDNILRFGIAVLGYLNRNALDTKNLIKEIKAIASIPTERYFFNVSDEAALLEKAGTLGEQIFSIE
T1 sequence (P56199 161-360 limits assumed): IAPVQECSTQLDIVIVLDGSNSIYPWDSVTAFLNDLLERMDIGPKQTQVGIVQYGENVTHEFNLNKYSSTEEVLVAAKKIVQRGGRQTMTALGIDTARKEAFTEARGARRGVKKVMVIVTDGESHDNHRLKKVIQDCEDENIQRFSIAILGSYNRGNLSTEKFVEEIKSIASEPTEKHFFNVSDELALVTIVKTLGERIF
T2 sequence (P17301 188-365 limits assumed): as the sequence (P17301 188-365 limits assumed) above

“(GPO)3GAOGERGROGLO(GPO)3 (GP[Hyp]GP[Hyp]GP[Hyp]GA[Hyp]GERGR[Hyp]GL[Hyp]GP[Hyp]GP[Hyp]GP[Hyp]) [peptide #2]”: the “inhibition of binding of α1I to type III collagen” value in series [1] is 40%. Also, the “adhesion of MRC-5 cells to coated substrate” value in the series on MRC-5 cells was “could not”. In addition, in series [2], the “inhibition of binding of α2I to type III collagen” value came to 60%.

Usually Kd stands for the concentration at which binding is half-saturated. As for “Collagen I: purified recombinant human procollagen I immobilized for SPR; type I collagen of the cited earlier study”, the Kd in series [3] (first line per collagen in Table 2 (unit from b77), listed as type I collagen, read-out: KD, high affinity binding class) is ~0.3 µM; in series [3] (setting [5]) it was 0.26 ± 0.08 µM; in series [3] (second line per collagen in Table 2 (unit from b77), listed as type I collagen, read-out: KD, low affinity binding class), ~4 µM; in series [3] (setting [6]), 3.99 ± 0.82 µM.

`N=C(N)NCCC[C@H](NC(=O)[C@H](CCC(=O)O)NC(=O)CNC(=O)[C@@H]1C[C@@H](O)CN1C(=O)[C@H](CCCNC(=N)N)NC(=O)CNC(=O)[C@@H]1C[C@@H](O)CN1C(=O)[C@@H]1CCCN1C(=O)CNC(=O)[C@@H]1C[C@@H](O)CN1C(=O)[C@@H]1CCCN1C(=O)CNC(=O)[C@@H]1C[C@@H](O)CN1C(=O)[C@@H]1CCCN1C(=O)CN)C(=O)NCC(=O)N1CCC[C@H]1C(=O)N1C[C@H](O)C[C@H]1C(=O)NCC(=O)N1CCC[C@H]1C(=O)N1C[C@H](O)C[C@H]1C(=O)NCC(=O)N1CCC[C@H]1C(=O)N1C[C@H](O)C[C@H]1C(N)=O` [GROGER] (H-GP[Hyp]GP[Hyp]GP[Hyp]GR[Hyp]GERGP[Hyp]GP[Hyp]GP[Hyp]-NH2; N-terminus and C-terminus assumed): the “melting temperature (Tm) of triple helix” value in series [4] is 41 °C.

For the molecule “Collagen II: bovine mature type II collagen (Sigma)”, the Kd in series [3] (setting [5]) is 1.75 µM; in series [3] (second line per collagen in Table 2 (unit from b77), listed as type II collagen, read-out: KD, low affinity binding class), ~16.5 µM; in series [3] (setting [6]) it was 16.5 ± 3.89 µM.

Turning to “(GPO)11 (GPRGRT) [peptide #3, control peptide, reference compound]”, the “inhibition of binding of α1I to type III collagen” value in series [1] is listed as “did not show any inhibitory activity”. Moreover, the “inhibition of binding of α2I to type III collagen” value in series [2] is on record as “did not show any inhibitory activity”.

B1: Collagen III: recombinant human procollagen III in SPR; human recombinant mature type III collagen (FibroGen) in cell attachment assay (protein)
chain: QQEAVEGGCSHLGQSYADRDVWKPEPCQICVCDSGSVLCDDIICDDQELDCPNPEIPFGECCAVCPQPPTAPTRPPNGQGPQGPKGDPGPPGIPGRNGDPGIPGQPGSPGSPGPPGICESCPTGPQNYSPQYDSYDVKSGVAVGGLAGYPGPAGPPGPPGPPGTSGHPGSPGSPGYQGPPGEPGQAGPSGPPGPPGAIGPSGPAGKDGESGRPGRPGERGLPGPPGIKGPAGIPGFPGMKGHRGFDGRNGEKGETGAPGLKGENGLPGENGAPGPMGPRGAPGERGRPGLPGAAGARGNDGARGSDGQPGPPGPPGTAGFPGSPGAKGEVGPAGSPGSNGAPGQRGEPGPQGHAGAQGPPGPPGINGSPGGKGEMGPAGIPGAPGLMGARGPPGPAGANGAPGLRGGAGEPGKNGAKGEPGPRGERGEAGIPGVPGAKGEDGKDGSPGEPGANGLPGAAGERGAPGFRGPAGPNGIPGEKGPAGERGAPGPAGPRGAAGEPGRDGVPGGPGMRGMPGSPGGPGSDGKPGPPGSQGESGRPGPPGPSGPRGQPGVMGFPGPKGNDGAPGKNGERGGPGGPGPQGPPGKNGETGPQGPPGPTGPGGDKGDTGPPGPQGLQGLPGTGGPPGENGKPGEPGPKGDAGAPGAPGGKGDAGAPGERGPPGLAGAPGLRGGAGPPGPEGGKGAAGPPGPPGAAGTPGLQGMPGERGGLGSPGPKGDKGEPGGPGADGVPGKDGPRGPTGPIGPPGPAGQPGDKGEGGAPGLPGIAGPRGSPGERGETGPPGPAGFPGAPGQNGEPGGKGERGAPGEKGEGGPPGVAGPPGGSGPAGPPGPQGVKGERGSPGGPGAAGFPGARGLPGPPGSNGNPGPPGPSGSPGKDGPPGPAGNTGAPGSPGVSGPKGDAGQPGEKGSPGAQGPPGAPGPLGIAGITGARGLAGPPGMPGPRGSPGPQGVKGESGKPGANGLSGERGPPGPQGLPGLAGTAGEPGRDGNPGSDGLPGRDGSPGGKGDRGENGSPGAPGAPGHPGPPGPVGPAGKSGDRGESGPAGPAGAPGPAGSRGAPGPQGPRGDKGETGERGAAGIKGHRGFPGNPGAPGSPGPAGQQGAIGSPGPAGPRGPVGPSGPPGKDGTSGHPGPIGPPGPRGNRGERGSEGSPGHPGQPGPPGPPGAPGPCCGGVGAAAIAGIGGEKAGGFAPYYGDEPMDFKINTDEIMTSLKSVNGQIESLISPDGSRKNPARNCRDLKFCHPELKSGEYWVDPNQGCKLDAIKVFCNMETGETCISANPLNVPRKHWWTDSSAEKKHVWFGESMDGGFQFSYGNPELPEDVLDVHLAFLRLLSSRASQNITYHCKNSIAYMDQASGNVKKALKLMGSNEGEFKAEGNSKFTYTVLEDGCTKHTGEWSKTVFEYRTRKAVRLPIVDIAPYDIGGPDQEFGVDVGPVCFL
modifications: non-natural residues
notes: recombinant human procollagen III in SPR; human recombinant mature type III collagen (FibroGen) in cell attachment assay
Take B1: the Kd in series [3] (first line per collagen in Table 2 (unit from b77), listed as type III collagen, read-out: KD, high affinity binding class) is ~0.3 µM; in series [3] (setting [5]) it was 0.33 ± 0.03 µM; in series [3] (second line per collagen in Table 2 (unit from b77), listed as type III collagen, read-out: KD, low affinity binding class), ~14.5 µM; in series [3] (setting [6]), 14.5 ± 3.41 µM. Further, the “adhesion of MRC-5 cells to coated substrate” value in the series on MRC-5 cells was “could support adhesion of MRC-5 cells in a dose-dependent manner”.

The record behind these values is patent US10358464B2, “Specific binding sites in collagen for integrins and use thereof” (The Texas A&M University System, priority 2005, dated 2019).
